# Reference: US9863962, “Aptamers and sensing technology used for detection of glycated hemoglobin in whole blood” (Alfaisal University)
# B1: G18 (ssDNA)
# DNA: GGCCACAGCAGCCAGTACACCCACCCACCAGCCCCGTCAACGACCTGAACCTGCCCTGTGTG
# B2: G11 (ssDNA)
# DNA: CGACACCAGCACACAGACCCGAGACACACGTCAGATCAACAGCGACCGTATCATTGGTTG
# B3: G20 (ssDNA)
# DNA: GGGGACACAGCAACACACCCACCCACCAGCCCCAGCATCATGCCCATCCGTCGTGTGTG
# B4: thiol-G20 (ssDNA)
# DNA: B3 DNA
# modifications: 5' HS-(CH2)6
# B5: G4 (ssDNA)
# DNA: GGGCCGACGGGAGGGGGAGGGAGAGCAATACGAGGTGGGATGGCAGATTATGGGTGCACT
# B6: G15 (ssDNA)
# DNA: ACGCACACCAGAGACAAGTAGCCCCCCAAACGCGGCCACGGAACGCAGCACCTCCATGGC
# B7: thiol-G15 (ssDNA)
# DNA: B6 DNA
# modifications: 5' HS-(CH2)6
# B8: G23 (ssDNA)
# DNA: GGACACGGCAAAGGGGTATAGCCTACCGGACCGTGGACATGGAATTGTGTGCTGCGTGG
# Tests used:
# [1] = molecular target: T1, glycated hemoglobin HbA1c (UniProt P69905;P68871 P69905:2-142,P68871:2-147); assay: impedance; HbA1C-specific, Kd stated only as nanomolar range; details: tags: none; purified HbA1C from Monojo (Amman, Jordan); immobilized on cysteamine/PDITC gold electrode; chain copies: 2
# Description: (§1) Binding analysis of the aptamer sequences to Hb and HbA1C: In order to test the binding affinity of the aptamer sequences to their protein targets, some representative sequences were synthesized after eliminating the primers sequence. A solution of 25 nM from each aptamer sequence in binding buffer was incubated with the Hb and HbA1C-modified electrodes (described in section 2.3.4) for 30 min. The electrodes were then washed with binding buffer and impedance measurements were recorded in 5 mM [Fe(CN)_6]^{3-/4-} redox couple. The binding was then evaluated by calculating the % $RCT$ change)((R−R°/R°%).
# A significant change in the $Rct$ after the incubation of most of the tested aptamers with the HbA1C electrodes while no response was obtained with scrambled DNA sequence (control DNA) indicating specific binding of the aptamers to HbA1C. […] The highest change in EIS signal was obtained for aptamers G11, G23, G18, G20, G15, therefore these aptamers were subjected to further analysis to assess their binding affinity. The dissociation constants were determined by incubating different concentrations of the aptamers with Hb and HbA1C-modified electrodes. […] The K_d were then calculated from the binding curve using non linear regression analysis. […] Four HbA1C-specific aptamers with high affinity and specificity were obtained (G11, G18, G20, G23). […] The aptamer sequences may be made in full or part of it may be used for binding studies. Thus, from our SELEX screening, an aptamer that bind to the tHb (G15) as well as specific aptamers to HbA1C (G20) were obtained.
# [2] = molecular target: T1, glycated hemoglobin HbA1c; assay: electrochemical impedance on HbA1C-gold electrode; 50 mM Tris pH 7.5, 150 mM NaCl, 2 mM MgCl2; details: tags: none; purified HbA1C from Monojo (Amman, Jordan); immobilized on cysteamine/PDITC gold electrode; chain copies: 2
# Description: as §1
# (§2) A significant change in the $Rct$ after the incubation of most of the tested aptamers with the HbA1C electrodes while no response was obtained with scrambled DNA sequence (control DNA) indicating specific binding of the aptamers to HbA1C. […] The highest change in EIS signal was obtained for aptamers G11, G23, G18, G20, G15, therefore these aptamers were subjected to further analysis to assess their binding affinity. The dissociation constants were determined by incubating different concentrations of the aptamers with Hb and HbA1C-modified electrodes. […] The K_d were then calculated from the binding curve using non linear regression analysis. […] Four HbA1C-specific aptamers with high affinity and specificity were obtained (G11, G18, G20, G23). […]
# [3] = molecular target: T2, bovine serum albumin (BSA) (Bos taurus, UniProt P02769 P02769:25-607); assay: impedance; no significant response; details: tags: none; Sigma
# [4] = molecular target: T2, bovine serum albumin (BSA); assay: square wave voltammetry; no response with BSA; details: tags: none; Sigma
# Description: (§3) For the Hb and HbA1C detection and selectivity experiments, each aptamer-modified electrode on the aptasensor array chip was incubated for 30 min with specific concentrations of Hb and HbA1C standard solutions. The electrodes were then washed with 50 mM Tris-HCl buffer pH 7.4 and subjected to square wave voltammetry (SWV) measurements in 10 mM [Fe(CN)_6]^{3-/4-} redox couple in 0.1 M PBS buffer solution. The parameters used for the SWV measurements: amplitude 20 mV; interval time 0.04 s; step potential −5 mV; scan rate 125 mV s-1, and frequency 25 Hz. The cyclic voltammetry (CV) experiments were conducted at a scan rate of 100 mV/s.
# (§4) Dose response of the aptasensors: The aptasensors voltammetric response toward tHb and HbA1C was measured in the concentration range of 100 pg/mL to 10 µg/mL. […] Three independent measurements were done for each data point in order to assess the reproducibility of the aptasensors array. […] The linear regression equation of the HbA1C aptasensor is (i°–i)/ i°%=45.0+14.6×log C [ng/ml], R=0.997, with a detection limit (LOD) of 0.2 ng/mL and for the tHb: (i°−i)/i°%=42.5+20.2×log C [ng/ml], R=0.98, with LOD=0.34 ng/ml. The LOD was calculated from 3(S_{y/x}/m), where S_{y/x} is the standard error of estimate and m is the slope of the calibration curve. […]
# [5] = molecular target: T1, glycated hemoglobin HbA1c; assay: square wave voltammetry aptasensor on AuNP electrode; LOD 0.2 ng/mL; details: tags: none; purified HbA1C from Monojo (Amman, Jordan); immobilized on cysteamine/PDITC gold electrode; chain copies: 2
# Description: as §3, §4
# [6] = molecular target: T1, glycated hemoglobin HbA1c; assay: impedance screen at 25 nM aptamer; lower signal than top five; details: tags: none; purified HbA1C from Monojo (Amman, Jordan); immobilized on cysteamine/PDITC gold electrode; chain copies: 2
# Description: as §1
# Binding affinity analysis of the aptamers: Eight representative sequences were subjected to initial binding analysis. Initial screening of the aptamer sequences (G11, G23, G20, G18, G15, G10, G22, G4) was performed using EIS to confirm their successful binding to HbA1C (FIG. 2A).
# [7] = molecular target: T2, bovine serum albumin (BSA); assay: impedance; specificity control; details: tags: none; Sigma
# Description: The binding specificity of the HbA1C aptamer (G20) was also confirmed by incubating the HbA1C modified electrode with different concentrations of non glycated Hb and BSA as control. No significant response was obtained for the non specific proteins which indicates excellent specificity of the selected aptamer (FIG. 3). Similarly, the specificity of the tHb aptamer (G15) was verified against BSA as control. The two aptamers, G15 and G20, were then applied for Hb and HbA1C detection a microarray platform.
# [8] = molecular target: T3, hemoglobin (Hb, non-glycated / total Hb) (UniProt P69905;P68871 P69905:2-142,P68871:2-147); assay: electrochemical impedance on Hb-gold electrode; 50 mM Tris pH 7.5, 150 mM NaCl, 2 mM MgCl2; details: tags: none; purified Hb from Monojo (Amman, Jordan); immobilized on cysteamine/PDITC gold electrode; chain copies: 2
# Description: as §1, §2
# [9] = molecular target: T3, hemoglobin (Hb, non-glycated / total Hb); assay: square wave voltammetry aptasensor on AuNP electrode; LOD 0.34 ng/mL; details: tags: none; purified Hb from Monojo (Amman, Jordan); immobilized on cysteamine/PDITC gold electrode; chain copies: 2
# Description: as §3, §4
# T1 sequence (P69905 2-142, chain 1 of 2): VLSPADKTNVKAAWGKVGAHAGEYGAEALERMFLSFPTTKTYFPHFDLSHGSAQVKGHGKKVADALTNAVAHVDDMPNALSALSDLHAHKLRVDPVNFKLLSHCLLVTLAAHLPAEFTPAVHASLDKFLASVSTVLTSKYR
# T1 sequence (P68871 2-147, chain 2 of 2): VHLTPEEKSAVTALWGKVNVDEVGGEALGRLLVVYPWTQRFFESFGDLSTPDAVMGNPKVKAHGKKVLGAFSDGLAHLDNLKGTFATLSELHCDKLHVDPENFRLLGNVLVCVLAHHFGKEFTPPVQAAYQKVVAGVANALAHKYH
# T2 sequence (P02769 25-607, one chain of several): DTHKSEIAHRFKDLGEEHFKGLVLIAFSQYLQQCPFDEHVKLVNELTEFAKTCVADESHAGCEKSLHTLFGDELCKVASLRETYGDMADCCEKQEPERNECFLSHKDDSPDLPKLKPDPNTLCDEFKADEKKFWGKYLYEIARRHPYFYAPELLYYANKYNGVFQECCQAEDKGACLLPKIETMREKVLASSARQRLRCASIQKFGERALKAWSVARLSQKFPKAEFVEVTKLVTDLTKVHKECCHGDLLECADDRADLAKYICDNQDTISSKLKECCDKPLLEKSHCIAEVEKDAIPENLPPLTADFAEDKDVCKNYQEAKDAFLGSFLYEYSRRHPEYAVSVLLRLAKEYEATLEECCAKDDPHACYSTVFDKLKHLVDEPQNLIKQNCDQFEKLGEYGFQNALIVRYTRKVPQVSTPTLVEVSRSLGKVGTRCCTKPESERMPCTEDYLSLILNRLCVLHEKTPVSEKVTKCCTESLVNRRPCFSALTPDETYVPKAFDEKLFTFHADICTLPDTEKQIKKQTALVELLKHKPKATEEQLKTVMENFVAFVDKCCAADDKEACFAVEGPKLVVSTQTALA
# T3 sequence (P69905 2-142, chain 1 of 2): as the sequence (P69905 2-142, chain 1 of 2) above
# T3 sequence (P68871 2-147, chain 2 of 2): as the sequence (P68871 2-147, chain 2 of 2) above
binder,measurement,setting,value
B1,binding result,[1],binds
B2,binding result,[1],binds
B3,Kd,[2],2.8 nM
same,binding result,[3],no binding
B4,binding result,[4],no binding
same,binding result,[5],binds
B5,binding result,[6],binds
B6,binding result,[7],no binding
same,Kd,[2],3.3 nM
same,Kd,[8],2.7 nM
B7,binding result,[4],no binding
same,binding result,[9],binds
B8,binding result,[1],binds
